What all share (assay): radioreceptor assay, displacement of [125I-DTyr0]-astressin from purified sCRFR2α
Background: Displacement assays read how much labelled ligand stays bound in the presence of the test substance.

Experiment [1] deals with bact sCRFR2α (mouse soluble CRF receptor type 2α, amino acids 20-143, purified from E. coli) (mouse).
Experiment [2] concerns the target mam sCRFR2α (mouse soluble CRF receptor type 2α, amino acids 1-143 with a FLAG epitope following amino acid 143, purified from COS M6 cell media) (mouse).
In experiment [3] the target is T1, mam sCRFR2α (mouse soluble CRF receptor type 2α, amino acids 1-143 with a FLAG epitope following amino acid 143, purified from COS M6 cell media) (mouse).
T1 chain: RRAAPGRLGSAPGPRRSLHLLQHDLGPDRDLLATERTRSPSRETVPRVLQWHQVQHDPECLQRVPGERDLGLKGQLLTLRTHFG

This is an account of results in patent publication US20070042954A1.

Read-outs that look alike come from different tables or passages of the source. Where no end group is shown, it is not given here.

As for SEEPPISLDLTFHLLREVLEMARAEQLAQQAHSNRKLMEII (ends and bridges not checked) [corticotropin releasing factor (CRF)], the inhibitory constant (Ki) in experiment [1] was determined as 14.8 nM; in experiment [2], 23 nM.

Regarding DDPPLSIDLTFHLLRTLLELARTQSQRERAEQNRIIFDSV (peptide, UniProt P55090 81-120, looked up) [rUcn1 (urocortin 1)], the Ki in experiment [1] is 5.8 nM; in experiment [2], 6.6 nM.

As to VILSLDVPIGLLRILLEQARYKAARNQAATNAQILAHV (peptide, UniProt Q99ML8 73-110, looked up) [mUcn2 (urocortin 2)], the Ki is 116 nM in experiment [1] and 113 nM in experiment [2].

In experiment [3], FHLLREVLEMARAEQLAQEAHKNRKLMEII (modifications not checked) [Astressin] had a Ki of 6.7 nM.

By Ki is commonly meant the dissociation constant of the complex between target and ligand, obtained from inhibition or displacement. Read a low Ki as higher affinity.
